Test results from patent US20200270325A1 (Merck Sharp & Dohme, published 2020).
Numbered stars: 1 amine (or outer) side, 2 acyl side, 3 side chain; on linkers, the order of the positions; unused ones are H or OH. Square brackets hold non-standard residues; d marks the D form. Primed or numbered codes have the meaning given here. Side chains are listed from the residue outwards. Ends that are not written are not given here. * marks the point of attachment. Phe(4-CH2NH2) = NCc1ccc(C[C@H](N)C(=O)O)cc1; C18 diacid = O=C(O)CCCCCCCCCCCCCCCCC(=O)*; γGlu = O=C(O)[C@H](CCC(=O)[*:2])N[*:1]; Met(O2) = CS(=O)(=O)CC[C@H](N)C(=O)O; αMeD = C[C@](N)(CC(=O)O)C(=O)O; PEG2′ = not defined here; AEEA = NCCOCCOCC(=O)O; Aib = CC(C)(N)C(=O)O

B1: TP677 (peptide)
peptide: H[Aib]QGTFTSDYSKYLDARAAK([AEEA-AEEA-AEEA-γGlu-C18 diacid])DFVQWL[Met(O2)][αMeD]T-NH2
modifications: N-terminus assumed
SMILES: CC(C)C[C@H](NC(=O)[C@H](Cc1ccc(O)cc1)NC(=O)[C@H](CCCCN)NC(=O)[C@H](CO)NC(=O)[C@H](Cc1ccc(O)cc1)NC(=O)[C@H](CC(=O)O)NC(=O)[C@H](CO)NC(=O)[C@@H](NC(=O)[C@H](Cc1ccccc1)NC(=O)[C@@H](NC(=O)CNC(=O)[C@H](CCC(N)=O)NC(=O)C(C)(C)NC(=O)[C@@H](N)Cc1c[nH]cn1)[C@@H](C)O)[C@@H](C)O)C(=O)N[C@@H](CC(=O)O)C(=O)N[C@@H](C)C(=O)N[C@@H](CCCNC(=N)N)C(=O)N[C@@H](C)C(=O)N[C@@H](C)C(=O)N[C@@H](CCCCNC(=O)COCCOCCNC(=O)COCCOCCNC(=O)COCCOCCNC(=O)CC[C@H](NC(=O)CCCCCCCCCCCCCCCCC(=O)O)C(=O)O)C(=O)N[C@@H](CC(=O)O)C(=O)N[C@@H](Cc1ccccc1)C(=O)N[C@H](C(=O)N[C@@H](CCC(N)=O)C(=O)N[C@@H](Cc1c[nH]c2ccccc12)C(=O)N[C@@H](CC(C)C)C(=O)N[C@@H](CCS(C)(=O)=O)C(=O)N[C@@](C)(CC(=O)O)C(=O)N[C@H](C(N)=O)[C@@H](C)O)C(C)C
B2: TP678 (peptide)
peptide: H[Aib]QGTFTSDYSKYLDARAA[Phe(4-CH2NH2)]([AEEA-AEEA-AEEA-γGlu-C18 diacid])DFVQWLLDT-NH2
modifications: N-terminus assumed
SMILES: CC(C)C[C@H](NC(=O)[C@H](Cc1ccc(O)cc1)NC(=O)[C@H](CCCCN)NC(=O)[C@H](CO)NC(=O)[C@H](Cc1ccc(O)cc1)NC(=O)[C@H](CC(=O)O)NC(=O)[C@H](CO)NC(=O)[C@@H](NC(=O)[C@H](Cc1ccccc1)NC(=O)[C@@H](NC(=O)CNC(=O)[C@H](CCC(N)=O)NC(=O)C(C)(C)NC(=O)[C@@H](N)Cc1c[nH]cn1)[C@@H](C)O)[C@@H](C)O)C(=O)N[C@@H](CC(=O)O)C(=O)N[C@@H](C)C(=O)N[C@@H](CCCNC(=N)N)C(=O)N[C@@H](C)C(=O)N[C@@H](C)C(=O)N[C@@H](Cc1ccc(CNC(=O)COCCOCCNC(=O)COCCOCCNC(=O)COCCOCCNC(=O)CC[C@H](NC(=O)CCCCCCCCCCCCCCCCC(=O)O)C(=O)O)cc1)C(=O)N[C@@H](CC(=O)O)C(=O)N[C@@H](Cc1ccccc1)C(=O)N[C@H](C(=O)N[C@@H](CCC(N)=O)C(=O)N[C@@H](Cc1c[nH]c2ccccc12)C(=O)N[C@@H](CC(C)C)C(=O)N[C@@H](CC(C)C)C(=O)N[C@@H](CC(=O)O)C(=O)N[C@H](C(N)=O)[C@@H](C)O)C(C)C
B3: TP675 (peptide)
peptide: H[Aib]QGTFTSDYSKYLD[Aib]RAAQDFVK([AEEA-AEEA-γGlu-C18 diacid])WL[Met(O2)]ET-NH2
modifications: N-terminus assumed
SMILES: CC(C)C[C@H](NC(=O)[C@H](Cc1c[nH]c2ccccc12)NC(=O)[C@H](CCCCNC(=O)COCCOCCNC(=O)COCCOCCNC(=O)CC[C@H](NC(=O)CCCCCCCCCCCCCCCCC(=O)O)C(=O)O)NC(=O)[C@@H](NC(=O)[C@H](Cc1ccccc1)NC(=O)[C@H](CC(=O)O)NC(=O)[C@H](CCC(N)=O)NC(=O)[C@H](C)NC(=O)[C@H](C)NC(=O)[C@H](CCCNC(=N)N)NC(=O)C(C)(C)NC(=O)[C@H](CC(=O)O)NC(=O)[C@H](CC(C)C)NC(=O)[C@H](Cc1ccc(O)cc1)NC(=O)[C@H](CCCCN)NC(=O)[C@H](CO)NC(=O)[C@H](Cc1ccc(O)cc1)NC(=O)[C@H](CC(=O)O)NC(=O)[C@H](CO)NC(=O)[C@@H](NC(=O)[C@H](Cc1ccccc1)NC(=O)[C@@H](NC(=O)CNC(=O)[C@H](CCC(N)=O)NC(=O)C(C)(C)NC(=O)[C@@H](N)Cc1c[nH]cn1)[C@@H](C)O)[C@@H](C)O)C(C)C)C(=O)N[C@@H](CCS(C)(=O)=O)C(=O)N[C@@H](CCC(=O)O)C(=O)N[C@H](C(N)=O)[C@@H](C)O
B4: TP693 (peptide)
peptide: HXQGTFTSDXSKYLDARAAQDFVXWLXDT
modifications: D-Ser (s) at 2; pAF(γEγEC16) at 10; K(PEG2PEG2γEC16-OH) at 24; L-methionine sulphone (2) at 27; C-terminal amide
B5: TP679 (peptide)
peptide: H[Aib]QGTFTSDYSKYLDARAAQ[Phe(4-CH2NH2)]([AEEA-AEEA-AEEA-γGlu-C18 diacid])FVQWLLDT-NH2
modifications: N-terminus assumed
SMILES: CC(C)C[C@H](NC(=O)[C@H](Cc1ccc(O)cc1)NC(=O)[C@H](CCCCN)NC(=O)[C@H](CO)NC(=O)[C@H](Cc1ccc(O)cc1)NC(=O)[C@H](CC(=O)O)NC(=O)[C@H](CO)NC(=O)[C@@H](NC(=O)[C@H](Cc1ccccc1)NC(=O)[C@@H](NC(=O)CNC(=O)[C@H](CCC(N)=O)NC(=O)C(C)(C)NC(=O)[C@@H](N)Cc1c[nH]cn1)[C@@H](C)O)[C@@H](C)O)C(=O)N[C@@H](CC(=O)O)C(=O)N[C@@H](C)C(=O)N[C@@H](CCCNC(=N)N)C(=O)N[C@@H](C)C(=O)N[C@@H](C)C(=O)N[C@@H](CCC(N)=O)C(=O)N[C@@H](Cc1ccc(CNC(=O)COCCOCCNC(=O)COCCOCCNC(=O)COCCOCCNC(=O)CC[C@H](NC(=O)CCCCCCCCCCCCCCCCC(=O)O)C(=O)O)cc1)C(=O)N[C@@H](Cc1ccccc1)C(=O)N[C@H](C(=O)N[C@@H](CCC(N)=O)C(=O)N[C@@H](Cc1c[nH]c2ccccc12)C(=O)N[C@@H](CC(C)C)C(=O)N[C@@H](CC(C)C)C(=O)N[C@@H](CC(=O)O)C(=O)N[C@H](C(N)=O)[C@@H](C)O)C(C)C
B6: TP676 (peptide)
peptide: H[Aib]QGTFTSDYSKYLDARAAK([AEEA-AEEA-AEEA-γGlu-C18 diacid])DFVQWL[Met(O2)]DT-NH2
modifications: N-terminus assumed
SMILES: CC(C)C[C@H](NC(=O)[C@H](Cc1ccc(O)cc1)NC(=O)[C@H](CCCCN)NC(=O)[C@H](CO)NC(=O)[C@H](Cc1ccc(O)cc1)NC(=O)[C@H](CC(=O)O)NC(=O)[C@H](CO)NC(=O)[C@@H](NC(=O)[C@H](Cc1ccccc1)NC(=O)[C@@H](NC(=O)CNC(=O)[C@H](CCC(N)=O)NC(=O)C(C)(C)NC(=O)[C@@H](N)Cc1c[nH]cn1)[C@@H](C)O)[C@@H](C)O)C(=O)N[C@@H](CC(=O)O)C(=O)N[C@@H](C)C(=O)N[C@@H](CCCNC(=N)N)C(=O)N[C@@H](C)C(=O)N[C@@H](C)C(=O)N[C@@H](CCCCNC(=O)COCCOCCNC(=O)COCCOCCNC(=O)COCCOCCNC(=O)CC[C@H](NC(=O)CCCCCCCCCCCCCCCCC(=O)O)C(=O)O)C(=O)N[C@@H](CC(=O)O)C(=O)N[C@@H](Cc1ccccc1)C(=O)N[C@H](C(=O)N[C@@H](CCC(N)=O)C(=O)N[C@@H](Cc1c[nH]c2ccccc12)C(=O)N[C@@H](CC(C)C)C(=O)N[C@@H](CCS(C)(=O)=O)C(=O)N[C@@H](CC(=O)O)C(=O)N[C@H](C(N)=O)[C@@H](C)O)C(C)C
B7: TP681 (peptide)
peptide: H[Aib]QGTFTSDYSKYLDARAAQK([AEEA-AEEA-γGlu-C18 diacid])FVQWL[Met(O2)][αMeD]T-NH2
modifications: N-terminus assumed
SMILES: CC(C)C[C@H](NC(=O)[C@H](Cc1ccc(O)cc1)NC(=O)[C@H](CCCCN)NC(=O)[C@H](CO)NC(=O)[C@H](Cc1ccc(O)cc1)NC(=O)[C@H](CC(=O)O)NC(=O)[C@H](CO)NC(=O)[C@@H](NC(=O)[C@H](Cc1ccccc1)NC(=O)[C@@H](NC(=O)CNC(=O)[C@H](CCC(N)=O)NC(=O)C(C)(C)NC(=O)[C@@H](N)Cc1c[nH]cn1)[C@@H](C)O)[C@@H](C)O)C(=O)N[C@@H](CC(=O)O)C(=O)N[C@@H](C)C(=O)N[C@@H](CCCNC(=N)N)C(=O)N[C@@H](C)C(=O)N[C@@H](C)C(=O)N[C@@H](CCC(N)=O)C(=O)N[C@@H](CCCCNC(=O)COCCOCCNC(=O)COCCOCCNC(=O)CC[C@H](NC(=O)CCCCCCCCCCCCCCCCC(=O)O)C(=O)O)C(=O)N[C@@H](Cc1ccccc1)C(=O)N[C@H](C(=O)N[C@@H](CCC(N)=O)C(=O)N[C@@H](Cc1c[nH]c2ccccc12)C(=O)N[C@@H](CC(C)C)C(=O)N[C@@H](CCS(C)(=O)=O)C(=O)N[C@@](C)(CC(=O)O)C(=O)N[C@H](C(N)=O)[C@@H](C)O)C(C)C

Tests used:
[1] = target: human Glucagon receptor (GCGR) (human, UniProt P47871 26-477); experiment: cell-based or functional assay
[2] = target: human GLP-1 receptor (GLP1R) (human, UniProt P43220 24-463); experiment: cell-based or functional assay

Sequence of human Glucagon receptor (GCGR) (P47871 26-477): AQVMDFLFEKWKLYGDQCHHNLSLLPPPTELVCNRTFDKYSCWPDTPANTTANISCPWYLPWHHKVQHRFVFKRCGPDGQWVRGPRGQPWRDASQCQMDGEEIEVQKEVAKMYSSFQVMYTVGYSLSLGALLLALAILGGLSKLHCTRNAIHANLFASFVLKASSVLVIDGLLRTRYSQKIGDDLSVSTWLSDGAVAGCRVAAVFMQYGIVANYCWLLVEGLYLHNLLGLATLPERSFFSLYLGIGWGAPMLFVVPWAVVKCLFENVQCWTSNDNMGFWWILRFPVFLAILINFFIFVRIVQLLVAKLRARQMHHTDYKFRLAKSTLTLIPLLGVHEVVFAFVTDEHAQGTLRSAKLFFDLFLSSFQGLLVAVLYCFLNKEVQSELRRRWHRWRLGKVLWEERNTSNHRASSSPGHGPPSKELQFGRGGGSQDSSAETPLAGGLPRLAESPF

Binder | GCGR EC50 human [1] [nM] | GLP1R EC50 human [2] [nM]
B1 | 1.42 | 0.76
H[Aib]QGTFTSD[Phe(4-CH2NH2)]([AEEA-AEEA-γGlu-C20‑OH])SKYLD[Aib]RAAQDFVQWLLATK-{γGlu-NH2} [TP582] | 4.95 | 2.57
B2 | 0.25 | 0.91
H[Aib]QGTFTSDYSKYLDARAAQDFVK([PEG2′-PEG2′-PEG2′-γGlu-C18‑OH])WL[Met(O2)]DT-NH2 [TP680] | 0.59 | 0.19
H[Aib]QGTFTSDYSKYLD[Aib]RAAQDFVQWLL[Phe(4-CH2NH2)]([AEEA-AEEA-γGlu-C18 diacid])TK-{γGlu-NH2} [TP682] | 2.35 | 2.31
B3 | 0.3 | 0.71
B4 | 1.1 | > 4.9
H[Aib]QGTFTSDYSKYLD[Aib]RAAQDFVQWLLK([AEEA-AEEA-γGlu-C18 diacid])TK-{γGlu-NH2} [TP683] | 4.97 | 0.62
B5 | 0.13 | 0.18
B6 | 0.82 | 0.26
B7 | 0.27 | 0.15
